According to patent publication US7005505:
Where two headings read alike, the source gives them in different places.

Experiments:
[1] = target: KDR receptors on endothelial cells (bovine); experiment: cell-based or functional assay
[2] = target: KDR-IgG (UniProt P35968); experiment: competition with 125I-VEGF165 for KDR-IgG, radioligand plate assay
[3] = target: KDR-IgG (UniProt P35968); experiment: competition with 125I-VEGF165 for KDR-IgG, radioligand plate assay, no heparin
[4] = target: FLT-1 IgG (UniProt P17948); experiment: competition with 125I-VEGF165 for FLT-1-IgG, radioligand plate assay, no heparin
[5] = target: KDR receptors on endothelial cells (bovine); experiment: cell-based or functional assay; remark: listed apart in the source
[6] = target: FLT-1 IgG (UniProt P17948); experiment: competition with 125I-VEGF165 for FLT-1-IgG, radioligand plate assay

Chain of KDR receptors on endothelial cells (bovine) (P12820 29-1306): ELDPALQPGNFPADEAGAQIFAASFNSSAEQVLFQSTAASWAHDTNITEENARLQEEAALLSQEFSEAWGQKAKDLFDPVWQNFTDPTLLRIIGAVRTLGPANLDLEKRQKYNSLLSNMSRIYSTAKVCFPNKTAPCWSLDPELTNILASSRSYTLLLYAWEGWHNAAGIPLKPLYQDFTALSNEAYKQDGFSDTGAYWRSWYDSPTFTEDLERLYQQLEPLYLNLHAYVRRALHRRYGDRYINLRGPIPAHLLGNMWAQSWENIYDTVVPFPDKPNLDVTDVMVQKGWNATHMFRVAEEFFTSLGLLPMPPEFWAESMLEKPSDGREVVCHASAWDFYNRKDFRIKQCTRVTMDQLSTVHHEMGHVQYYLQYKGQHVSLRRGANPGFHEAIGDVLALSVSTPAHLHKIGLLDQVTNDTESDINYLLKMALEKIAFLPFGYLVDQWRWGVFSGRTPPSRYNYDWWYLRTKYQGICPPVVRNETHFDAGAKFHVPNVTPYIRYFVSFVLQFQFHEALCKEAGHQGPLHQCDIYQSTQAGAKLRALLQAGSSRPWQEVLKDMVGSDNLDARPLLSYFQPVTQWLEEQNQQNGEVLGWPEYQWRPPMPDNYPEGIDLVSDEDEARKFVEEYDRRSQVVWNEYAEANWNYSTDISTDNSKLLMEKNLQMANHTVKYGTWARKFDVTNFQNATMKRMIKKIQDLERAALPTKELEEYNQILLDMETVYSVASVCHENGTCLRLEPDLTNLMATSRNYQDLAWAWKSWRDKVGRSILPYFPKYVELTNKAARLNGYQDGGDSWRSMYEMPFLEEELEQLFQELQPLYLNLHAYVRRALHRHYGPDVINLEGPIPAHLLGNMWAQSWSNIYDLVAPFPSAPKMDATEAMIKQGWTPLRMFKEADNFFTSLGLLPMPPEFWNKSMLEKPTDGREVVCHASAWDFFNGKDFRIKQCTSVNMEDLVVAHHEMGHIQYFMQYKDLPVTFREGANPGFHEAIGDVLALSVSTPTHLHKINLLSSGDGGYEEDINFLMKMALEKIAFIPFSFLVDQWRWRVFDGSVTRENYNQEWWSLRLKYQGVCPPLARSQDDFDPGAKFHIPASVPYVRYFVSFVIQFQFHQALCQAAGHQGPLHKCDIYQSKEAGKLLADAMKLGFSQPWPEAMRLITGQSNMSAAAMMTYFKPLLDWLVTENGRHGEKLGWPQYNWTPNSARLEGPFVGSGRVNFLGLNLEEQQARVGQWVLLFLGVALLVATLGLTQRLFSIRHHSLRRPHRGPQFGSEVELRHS
Chain of KDR-IgG (P35968 20-764): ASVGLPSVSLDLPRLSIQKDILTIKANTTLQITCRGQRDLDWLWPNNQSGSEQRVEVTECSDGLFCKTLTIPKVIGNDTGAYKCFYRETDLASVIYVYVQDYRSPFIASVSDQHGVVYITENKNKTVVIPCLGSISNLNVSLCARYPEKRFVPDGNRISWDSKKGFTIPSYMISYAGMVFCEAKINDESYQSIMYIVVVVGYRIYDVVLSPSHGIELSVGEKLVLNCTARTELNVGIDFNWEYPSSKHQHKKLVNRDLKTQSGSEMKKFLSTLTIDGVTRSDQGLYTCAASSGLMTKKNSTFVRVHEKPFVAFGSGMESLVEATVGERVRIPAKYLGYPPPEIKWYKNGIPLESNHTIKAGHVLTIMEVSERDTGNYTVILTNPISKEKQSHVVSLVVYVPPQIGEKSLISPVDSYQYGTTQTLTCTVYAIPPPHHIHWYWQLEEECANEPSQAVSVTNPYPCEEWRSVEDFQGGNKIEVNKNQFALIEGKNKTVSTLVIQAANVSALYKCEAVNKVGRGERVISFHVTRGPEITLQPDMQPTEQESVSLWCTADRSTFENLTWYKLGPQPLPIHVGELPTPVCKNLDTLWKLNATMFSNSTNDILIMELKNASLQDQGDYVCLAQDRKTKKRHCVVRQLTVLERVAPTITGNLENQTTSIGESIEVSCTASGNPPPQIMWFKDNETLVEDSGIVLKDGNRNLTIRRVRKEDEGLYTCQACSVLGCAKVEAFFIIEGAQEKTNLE
Chain of FLT-1 IgG (P17948 27-758): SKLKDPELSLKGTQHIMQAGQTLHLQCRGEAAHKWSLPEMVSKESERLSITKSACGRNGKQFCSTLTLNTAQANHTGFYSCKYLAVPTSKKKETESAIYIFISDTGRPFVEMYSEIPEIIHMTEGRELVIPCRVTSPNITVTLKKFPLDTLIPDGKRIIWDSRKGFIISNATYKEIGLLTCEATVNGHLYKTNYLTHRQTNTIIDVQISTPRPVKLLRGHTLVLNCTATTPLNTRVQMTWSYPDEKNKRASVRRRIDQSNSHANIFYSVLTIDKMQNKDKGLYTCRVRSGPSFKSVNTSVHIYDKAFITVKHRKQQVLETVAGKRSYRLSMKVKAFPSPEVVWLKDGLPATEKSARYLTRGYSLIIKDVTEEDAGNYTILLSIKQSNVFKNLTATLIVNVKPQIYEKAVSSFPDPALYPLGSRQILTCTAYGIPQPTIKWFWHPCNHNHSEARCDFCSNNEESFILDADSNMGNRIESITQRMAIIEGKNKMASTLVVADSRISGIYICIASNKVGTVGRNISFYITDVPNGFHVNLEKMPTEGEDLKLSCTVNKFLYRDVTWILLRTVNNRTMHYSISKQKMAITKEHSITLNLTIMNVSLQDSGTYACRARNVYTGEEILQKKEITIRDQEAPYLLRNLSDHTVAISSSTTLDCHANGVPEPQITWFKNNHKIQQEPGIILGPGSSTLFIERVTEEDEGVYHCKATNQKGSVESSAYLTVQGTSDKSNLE

Half-Maximal Effective Concentration, Endothelial Cells [1]: 53 pM | IC50 [2]: 2.1 ng/mL | IC50 [3]: 0.026 nM | IC50 [4]: 0.019 nM | Half-Maximal Effective Concentration, Endothelial Cells [5]: 2.05 ng/mL | IC50 [6]: 0.73 ng/mL
Substance: K16A, D19T VEGF (from UniProt P15692 181-395) (ligand)
